Assay results from patent US20150017657A1, “ASSAY AND METHOD FOR IDENTIFYING COMPOUNDS THAT INHIBIT EXCITOTOXIC SIGNALS” (THE UNIVERSITY OF SYDNEY, priority 2011, published 2015).
No end group written: not given here.

Target: T1, Tau protein bound to Fyn protein (N-GFP-Fyn / C-GFP-Tau) (Homo sapiens, UniProt P06241)
T1 construct: A nucleic acid encoding amino acids 83-145 of human Fyn was cloned into the N-GFP-pLVX vector; N-GFP (GFP aa 1-158) with GGSG linker and XbaI-encoded SR; expressed in transfected cells; host or cells: COS-7 cells, lentiviral pLVX constructs, stably expressed
T1 sequence (P06241 83-145): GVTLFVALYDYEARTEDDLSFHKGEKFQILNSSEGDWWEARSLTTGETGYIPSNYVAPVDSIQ
Test: split-GFP reassembly assay of Tau/Fyn binding in transfected COS-7 cells
Assay type: cell-based
Settings: 200 nM peptide, 1 hour at 37 degree Celsius; COS-7 cells expressing N-GFP-Fyn and N-terminal C-GFP-Tau; plate reader or fluorescence microscope (FIG. 5)
Text: Lentiviruses containing either combination of constructs, i.e. N-terminal C-GFP fused to Tau and N-GFP fused to Fyn, or C-terminal C-GFP fused to Tau and N-GFP fused to Fyn, were then generated using standard protocols (e.g. Krupka et al., Plasmid, 2010, 63(3):155-60) and stably expressed in COS-7 cells.
However, transfection of constructs encoding N-terminal C-GFP fused to Tau and N-GFP fused to Fyn did result in green fluorescing cells (FIG. 5).
Cells generated by the methods described in Example 1 were grown till confluent in 96-well plates and then the fluorescence was measured in a 96-well plate reader (Omega, BMG) or by via fluorescence microscope. The cells were then incubated with 200 nM of the Tat-7PXXP peptide for 1 hour at 37 degree Celsius. The fluorescence was again measured in a 96-well plate reader (Omega, BMG) or via a fluorescence microscope.

**Q.** YGRKKRRQRRRTPPKSPSS [Tat-7PXXP] was tested. Which “fluorescence of the transfected cells” value did it give?
**A.** Its value is “negligible”.
